Experimental data reported in patent publication US20220389113A1, “BINDING PROTEINS TO CUB DOMAIN-CONTAINING PROTEIN (CDCP1)” (COMMONWEALTH SCIENTIFIC AND INDUSTRIAL RESEARCH ORGANISATION, priority 2019, published 2022).

Experiments:
[1] = system: CDCP1-positive TKCC05 cells; test: Lindmo assay, immune-reactive fraction; assay type: binding, human; details: 3 h at 4° C.
Procedure: 10D7 and control IgG1κ were labelled with the positron-emitting radionuclide ^89Zr as described (Zeglis B M and Lewis J S (2015) J Vis Exp 96:52521). Yield and purity of the labelled antibodies were determined by radio-TLC and -HPLC (Agilent, Mulgrave, Australia). To assess the impact of radiolabelling on 10D7 binding, the immune-reactive fraction (IRF) of 10D7-^89Zr was determined by Lindmo assay as previously described (Burvenich I J et al (2016) J Nucl Med. 57(6):974-80). Briefly, serially diluted TKCC05 cells (5×10^6-0.156×10^6 cells) were incubated with various amounts of 10D7-^89Zr alone or in the presence of a saturating amount of unlabelled 10D7 antibody (700 nM). After incubation (3 h at 4° C.) cells were centrifuged and the radioactivity of the cell pellet and supernatant was determined using a Wizard 2480 gamma counter (Perkin Elmer, Milton, Australia) and immunoreactive fraction (IRF) was calculated as previously described (Tolmachev V, Orlova A, Andersson K. (2014) Methods Mol Biol. 1060:309-30; Burvenich I J et al (2016) J Nucl Med. 57(6):974-80).
To evaluate whether the ability of antibody 10D7 to disrupt cellular processes that promote PDAC in vitro can be harnessed to target this cancer in vivo, the inventors first evaluated the capacity of this antibody to detect PDAC xenografts in mice. […]

clear cell EOC PDX PH250 = details: mouse, in vivo
Procedure: Mouse experiments were approved by the University of Queensland Animal Ethics Committee. For PET/CT imaging female NOD.Cg-Prkdc^scid Il2rg^tmwil/SzJ mice (6-8 weeks; 4 per group; Jackson Laboratory, Bar Harbor, Me.) were injected intraperitoneally with cells dissociated from a previously described clear cell EOC PDX designated PH250 (Weroha S J, et al., (2014) Clin Cancer Res. 2014; 20(5):1288-97) (0.2 g/mouse of pelleted cell slurry). CDCP1 expression by PDX PH250 was assessed by immunohistochemical and Western blot analysis as described (He Y, et al., (2016) Oncogene. 35(4):468-78.). 10D7 and IgG1K control were labelled with the positron-emitting radionuclide ^89Zr as described (Zeglis B M, et al., (2015) J Vis Exp. (96): 52521)), and yield and purity determined by radio-TLC and -HPLC (Agilent, Mulgrave, Australia). […] PET image acquisition (30 minutes) was followed by CT for anatomical registration and attenuation correction, with images reconstructed and analyzed using the Inveon Research Workspace (Siemens). Ex vivo bio-distribution was assessed after the final imaging time point. Harvested tumour and organs, cleaned of blood, were weighed and radioactivity quantified using a PerkinElmer 2480 Automatic Gamma Counter (Perkin Elmer, Milton, Australia) and presented as % ID/g of tumour or tissue. […]

B1: ^89Zr-DFO-10D7 (conjugate)
VH: EVQLQQFGAELVKPGASVKISCKASGYSFSDFNIEWLKQSHGKSLEWIGDINPNYDSTNYNQKFKGRATLTVDKSSSTAYMEVRSLTSEDTAVYYCARLGYGYAMDYWGQGTSVTVSS
VL: NIVMTQSPQSMSMSVGERVTLSCKASENVGAYVSWFQQKPDQSPKLLILAASNRYTGVPARFIGSGSATDFTLTISSVQAEDLADYHCGQSYTYPYTFGGGTKLEIKRADAAPTVS
**Q.** How did the “immune-reactive fraction (IRF)” value [1] turn out when B1 was run?
**A.** 88.9%

**Q.** What about the “percent injected dose per gram of tissue, tumour” value (clear cell EOC PDX PH250) of the same molecule?
**A.** 47.7±2.6 % ID/g
